The source of these data is publication PMC8034621.

The target in experiment [1] is biotinylated 4-heptad RNA polymerase II CTD peptide, Ser5 phosphorylated on all heptads.
For experiment [2], the target named is biotinylated 4-heptad RNA polymerase II CTD peptide, Ser2 phosphorylated on all heptads. As to the kind of experiment: pull-down on streptavidin-coupled Dynabeads, SDS-PAGE stained with Coomassie Blue, band quantification. The note with it: biotinylated peptides of four CTD heptads; triplicate; parent: est. 1.0; read off a plot.
The target in experiment [3] is biotinylated 4-heptad RNA polymerase II CTD peptide, Ser5 phosphorylated on all heptads. The experiment is described as above. The note with it: biotinylated peptides of four CTD heptads; triplicate; parent: est. 1.0; read off a plot.
For experiment [4], the target named is RNA polymerase II CTD CTD (UniProt P24928). The note with it: cited from earlier work.
RNA polymerase II CTD CTD, sequence (P24928 1593-1970 A1835T): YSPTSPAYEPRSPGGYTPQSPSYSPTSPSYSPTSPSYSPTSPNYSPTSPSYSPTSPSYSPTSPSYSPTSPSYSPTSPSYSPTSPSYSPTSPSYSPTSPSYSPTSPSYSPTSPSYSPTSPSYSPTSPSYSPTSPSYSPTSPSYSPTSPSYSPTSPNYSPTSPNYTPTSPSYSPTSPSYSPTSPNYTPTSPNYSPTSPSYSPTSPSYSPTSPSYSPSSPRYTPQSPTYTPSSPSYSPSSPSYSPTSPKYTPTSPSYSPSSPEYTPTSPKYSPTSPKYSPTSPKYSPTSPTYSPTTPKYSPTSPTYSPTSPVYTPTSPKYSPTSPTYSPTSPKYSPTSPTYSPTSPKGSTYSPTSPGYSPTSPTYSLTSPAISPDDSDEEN

By Kd is commonly meant a measure of binding affinity in units of concentration.

human capping enzyme (CE/RNGTT) GTase with the disordered flanking regions (211–597), wild-type, O60942 R330A; K331A; R386A, sequence (O60942 211-597 R330A/K331A/R386A): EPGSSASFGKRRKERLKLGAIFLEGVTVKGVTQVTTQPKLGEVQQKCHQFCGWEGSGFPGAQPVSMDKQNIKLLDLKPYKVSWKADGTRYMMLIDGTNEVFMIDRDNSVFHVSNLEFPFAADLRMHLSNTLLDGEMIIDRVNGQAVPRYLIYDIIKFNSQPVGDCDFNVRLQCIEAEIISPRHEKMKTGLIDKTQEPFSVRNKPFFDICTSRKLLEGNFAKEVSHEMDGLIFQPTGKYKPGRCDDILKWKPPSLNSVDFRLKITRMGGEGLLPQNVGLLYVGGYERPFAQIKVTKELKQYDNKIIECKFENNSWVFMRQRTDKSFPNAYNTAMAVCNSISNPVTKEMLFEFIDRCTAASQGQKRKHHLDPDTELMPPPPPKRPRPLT
human capping enzyme (CE/RNGTT) GTase with the disordered flanking regions (211–597), wild-type, O60942 R330A; K331A; R386A; R358A; K403A; R411A, sequence (O60942 211-597 R330A/K331A/R358A/R386A/K403A/R411A): as the sequence (O60942 211-597 R330A/K331A/R386A) above, with R148A, K193A, R201A counted along it
human capping enzyme (CE/RNGTT) GTase with the disordered flanking regions (211–597), wild-type, O60942 R358A; K403A; R411A, sequence (O60942 211-597 R358A/K403A/R411A): as the sequence (O60942 211-597 R330A/K331A/R386A) above, with A120R, A121K, R148A, A176R, K193A, R201A counted along it
human capping enzyme (CE/RNGTT) GTase with the disordered flanking regions (211–597), wild-type, sequence (O60942 211-597): as the sequence (O60942 211-597 R330A/K331A/R386A) above, with A120R, A121K, A176R counted along it
mRNA capping enzyme GTase, sequence (O60942 229-597): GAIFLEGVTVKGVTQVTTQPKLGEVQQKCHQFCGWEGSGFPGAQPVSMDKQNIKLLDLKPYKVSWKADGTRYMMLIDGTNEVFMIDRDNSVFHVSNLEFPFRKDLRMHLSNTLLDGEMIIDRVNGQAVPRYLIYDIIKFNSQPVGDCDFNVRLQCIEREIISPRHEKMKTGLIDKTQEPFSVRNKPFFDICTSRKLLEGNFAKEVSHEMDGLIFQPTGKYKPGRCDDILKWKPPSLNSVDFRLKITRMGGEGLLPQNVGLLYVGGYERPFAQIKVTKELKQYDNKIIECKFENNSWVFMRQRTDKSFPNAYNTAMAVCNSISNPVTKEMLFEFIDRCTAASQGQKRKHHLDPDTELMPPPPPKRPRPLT

With “human CE GTase (211–597) ΔCDS1 (R330A/K331A/R386A) (from UniProt O60942 211-597) (domain or fragment)”, in experiment [1], the guanylyltransferase activity (32P-GMP bound to the GTase), 0-10 μM 4-heptad pSer5 CTD peptide, relative to basal activity is 1.4 fold.

In the case of “human capping enzyme (CE/RNGTT) GTase with the disordered flanking regions (211–597), wild-type (from UniProt O60942 211-597) (domain or fragment)”, in experiment [1], the guanylyltransferase activity (32P-GMP bound to the GTase), 0-10 μM 4-heptad pSer5 CTD peptide, relative to basal WT activity was 2.2 fold. For “human capping enzyme (CE/RNGTT) GTase with the disordered flanking regions (211–597), wild-type, O60942 R330A; K331A; R386A”, the ratio to parent in experiment [2] is 0.2; in experiment [3], 0.43. The matching figures for “human capping enzyme (CE/RNGTT) GTase with the disordered flanking regions (211–597), wild-type, O60942 R330A; K331A; R386A; R358A; K403A; R411A”: 0.035 and 0.03.

Turning to “human capping enzyme (CE/RNGTT) GTase with the disordered flanking regions (211–597), wild-type, O60942 R358A; K403A; R411A”, the ratio to parent worked out at 0.12 in experiment [2] and 0.18 in experiment [3]. As for “mRNA capping enzyme GTase (from UniProt O60942)”, the Kd in experiment [4] is 139 µM.
